Measurements reported in the DeepSol protein solubility set.

experiment: soluble on expression in E. coli; label from the status in PepcDB or PDB records

Question: For “MSLTPEKLPLHVLLAEDSVVNQKVALSMLGKLGCFPDVAANGREAIDAMRQKRYDLVFMDCQMPEIDGYEVTRRIRKDHSLLCSPDIPVVAMTANAMKGDREKCIDAGMDDFMAKPLKKSDFQAIFERYFPGLFVRESSKEAGAGALTTDDVFLIDDVLFRLQNDREIILIIIGQFLLEAALQITELQAAAAEHDTERVRILSHTIKGAAATVGGQELSRCAAIIEQGAKSGDLTGIDEHLRDLNASYLRFKERVEASGWCEEGGEGHHHHHH”, which “soluble on expression in E. coli” value is on record?
Answer: soluble

Question: For “HLYPGEVCPGMDIRNNLTRLHELENCSVIEGHLQILLMFKTRPEDFRDLSFPKLIMITDYLLLFRVYGLESLKDLFPNLTVIRGSRLFFNYALVIFEMVHLKELGLYNLMNITRGSVRIEKNNELCYLATIDWSRILDSVEDNHIVLNKDDNEECGDICPGTAKGKTNCPATVINGQFVERCWTHSHCQKVCPTICKSHGCTAEGLCCHSECLGNCSQPDDPTKCVACRNFYLDGRCVETCPPPYYHFQDWRCVNFSFCQDLHHKCKNSRRQGCHQYVIHNNKCIPECPSGYTMNSSNLLCTPCLGPCPKVCHLLEGEKTIDSVTSAQELRGCTVINGSLIINIRGGNNLAAELEANLGLIEEISGYLKIRRSYALVSLSFFRKLRLIRGETLEIGNYSFYALDNQNLRQLWDWSKHNLTITQGKLFFHYNPKLCLSEIHKMEEVSGTKGRQERNDIALKTNGDQASCENELLKFSYIRTSFDKILLRWEPYWPPDFRDLLGFMLFYKEAPYQNVTEFDGQDACGSNSWTVVDIDPPLRSNDPKSQNHPGWLMRGLKPWTQYAIFVKTLVTFSDERRTYGAKSDIIYVQTDATNPSVPLDPISVSNSSSQIILKWKPPSDPNGNITHYLVFWERQAEDSELFELDYCLKGLKLPSRTWSPPFESEDSQKHNQSEYEDSAGECCSCPKTDSQILKELEESSFRKTFEDYLHNVVFVPRPSRKRRSLGDVGNHGNNVPTVAAFPNTSSTSVPTSPEEHRPFEKVVNKESLVISGLRHFTGYRIELQACNQDTPEERCSVAAYVSARTMPEAKADDIVGPVTHEIFENNVVHLMWQEPKEPNGLIVLYEVSYRRYGDEELHLCDTRKHFALERGCRLRGLSPGNYSVRIRATSLAGNGSWTEPTYFYVTDYLDVPSNIAK”, which “soluble on expression in E. coli” value is on record?
Answer: soluble

Question: For “MGSDKIHHHHHHMTNGVLWRSSLLSDYWFSHLPAALQDSVLHAARQVRKTPGKMLFEKGAAPCGLYALLEGDVRIGGAHFQRLGPRLEPIRRPYWFGEVSLFDEMPRRFDVCSLEQTIFLQVPHSFLVSLLDRHPEYWRHFAALLSQKLGLPLQNPEKLQLLPPRSRVASRLLLLSEGYGPLSHARRLITLDEVTSLQDLSHSALLEVLEDLHERKVVRLGIGQLEVFDVDKLRKIANFSRARAVC”, which “soluble on expression in E. coli” value is on record?
Answer: not soluble

Question: For “MKNNPLISIYMPTWNRQQLAIRAIKSVLRQDYSNWEMIIVDDCSTSWEQLQQYVTALNDPRITYIHNDINSGACAVRNQAIMLAQGEYITGIDDDDEWTPNRLSVFLAHKQQLVTHAFLYANDYVCQGEVYSQPASLPLYPKSPYSRRLFYKRNIIGNQVFTWAWRFKECLFDTELKAAQDYDIFLRMVVEYGEPWKVEEATQILHINHGEMQITSSPKKFSGYFHFYRKHKDKFDRASKKYQLFTLYQIRNKRMTWRTLLTLLSVRNGKRLADGIRGRLEHHHHHH”, which “soluble on expression in E. coli” value is on record?
Answer: soluble

Question: For “GPGSMPAKKKEVKVDEPLFVDEEGSYVHEAEGARYKGGVRRYAPPGGTDAGGTAAPPAKNSRSRSTSSPGKGGATPPPSAAAGAAASMAVVSDAPVFRHGRGVYTCPSFTYAGDWVEDEMHGSGQLTFVESGNIYEGEFSHGCFSGQGTYQWRDGALYCGQWRSNRMHGEGIYTDVQGHVWKGRYYNGTGPGLIRLYPTLERVDDAGPSSPGPDATNAAATVANS”, which “soluble on expression in E. coli” value is on record?
Answer: soluble

Question: Which “soluble on expression in E. coli” value does the source give for “MTVSPSYDAIVIGSGIGGLVTATQLVSKGLKVLVLERYLIPGGSAGYFEREGYRFDVGASMIFGFGDRGTTNLLTRALAAVGQALETLPDPVQIHYHLPGGLDPKVHREYEAFLQELIAKFPQEAQGIRRFYDECWQVFNCLNTMELLSLEEPRYLMRVFFQHPGACLGLVKYLPQNVGDIARRHIQDPDLLKFIDMECYCWSVVPADLTPMINAGMVFSDRHYGGINYPKGGVGQIAESLVAGLEKFGGKIRYGARVTKIIQENNQAIGVELANGEKIYGRRIVSNATRWDTFGALTGDQPLPGKEKRWRRNYQQSPSFLSLHLGVEADLLPEGTECHHILLEDWDDLEKEQGTIFVSIPTLLDPSLAPDGYHIIHTFTPSWLESWQNLSPQEYEAKKEADSGKLIDRLEAIFPGLDRALDYMEIGTPRSHRRFLGRQNGTYGPIPRRRLPGLLPMPFNRTAIPGLYCVGDSTFPGQGLNAVAFSGFACAHRLAVDLGVRLEHHHHHH” here?
Answer: not soluble

Question: With “MGSDKIHHHHHHMVKWYKTYLEVYGKSFDEISDDSIRKVKRQLKERQNDSPLVSVVLIAHNEERHLISCIWSLSENHCHFPIEIIAVNNNSTDKTEEILKSLGVTYYNETKKGPGYARQCGLDHAKGKYHICIDADTLYPPHYIETHVKYLMNPKVACTFSLWSFMVDERHSRFGLWCYEGLRDIYLRLQAIQRPELCVRGMAFSFNTEIGRRFGFRTDIIRGEDGSLALAMKPYGKIVFITSRKARVLTSNGTLNSEGSLIDNIWIRVIKALKEITGLFIKKTAYKDKDSNLIK” as the sequence, how does the “soluble on expression in E. coli” value read?
Answer: not soluble

Question: With “MVAEVSPKLAASPMKKPFGFRGKMGKWCCCCFPCCRGSGKNNMGAWRDHDDSAFTEPRYHVRREDLGKLHRAAWWGEVPRADLIVMLRGPGINKRDKKKRTALHLACANGNSEVVSLLLDRQCQLHVFDSKKRTALIKAVQCQEDECALMLLQHGTDPNLPDMYGNTALHYAVYNEDKLMAKTLLLYGADIESKNKGGLTPLLLAVHGQKQRMVKFLIKKKANLNALDRFGRICQLLSDYKENQMPNNSSGNSNPEQDLKLTSEEEPQRLKGSENSQHEKVTQEPDINKDCDREVEEEMQKHGSNNVGLSENLTDGAAAGNGDGGLVPQRKSRKHENQQFPNTEIEEYHRPEKKSNEKNKVKSQIHSVDNLDDITWPSEIASEDYDLLFSNYETFTLLIEQLKMDFNDSASLSKIQDAVISEEHLLELKNSHYEQLTVEVEQMENMVHVLQK” as the sequence, how does the “soluble on expression in E. coli” value read?
Answer: not soluble

Question: Which “soluble on expression in E. coli” value does the source give for “MAHHHHHHMEKQCPVCYFNLPDPESAIAPYDTELNYFMWGPGFEWQPEPEVKNILVEEENFEESEQSEESVAGLEELDEKVDRSEAKTMFNEKSSNGKVSVEDASQNARKLGLAPSSLDEKKVRDLYGDSLTYEQYLEYLAMCVHDRDNMEELIKMFSHFDNNASGFLTKNQMRNILTTWGDALTEQEANDALNAFSSEDRIDYKLFCEDILQ” here?
Answer: not soluble

Question: For “MGSDKIHHHHHHMNELRNDLLRYLTISATDEEWGIVVTTVGYQFIPPGCAYPLSRHPEKYNFKPQTGRILNEYQLVYITKGSGYFSSQSCKSQKINAGTMILLFPGEWHSYYPDRETGWDEYWVGFRGIHIDKRVEKKFFTKEEPLHRIGLSATIVGLYEDILKFASEEKSGYQQMISSIVLHILGSVYYKEKNNSFTNTYVVDKINEARILMKENIEDPLSPEEIAARLGLGYSWFRRMFKEYTGVSPAQYQLQQKLLRAKELLTSTPLTISEIAYSLHFENAGQFSTFFKKKEGVTPSEFRDRTH”, which “soluble on expression in E. coli” value is on record?
Answer: not soluble

Question: For “MGSDKIHHHHHHMKDLLNAFENKAPEIVFEWHDAETDATGWAVINSLRGGAAGGGTRMRKGLDKHEVVSLAKTMEIKFAVSGPHIGGAKSGINFDPADPRKNDVLNRWYKAVMPLLKSYYGTGGDLNVCEIKDVIPNTEEYGLWHPQEGIVNGHFHPSEELRIQKICQLRGGVTMPVVNPAYTPDPAKKYLVADLITGFGVSESVRHYYEIKGDSVAGKRVIVQGWGNVGGTAAYYLAANGAKVVGIIDRAAGLVSTEGLTFEQVKELLAKRVGNTLTGDNLLSAEDTQKLVWSVGADVFLPCAASRLVTREQVATLKDNGLGLIACGANVPFRDDNIFYGPTAEYADGVVDVIPDFIANCGMARAFNYLMSSKVDLDESAIFQDVSEVIRNALTESCAAATGKNHLLAASLKTVLHKLMH”, which “soluble on expression in E. coli” value is on record?
Answer: not soluble

Question: With “MSLNEQKAQQLLMFFREQAEKPLSVNELEEALNLEDAQEFKELVQVLNEMEEKGLLVRTRSNRYGVPEKMNLLRGVVQGHAKGFAFVIPEEEGHSDVYVSHVDLESAMNGDRVIVRLHPHSTGTRPEGKVIRILERGVSEVIGTYVDHQTYGLVVADDKRIPNDILIVNPEAQGLVDGHKVIVKITKYPEGRMSAEGEVISILGHKNDPGMDILSIIYKYGIPQAFPEEVLQQAQNIPDEIDAGEIKNRRDLRDEPLVTIDGADAKDLDDAVHVSRLPNGNFKLGVHIADVSYYVKEKSPIDLEAAERGTSVYLVDRVIPMIPHRLSNGICSLNPQVDRLTLSCEMEITRDGQVVNHEIFQSVIRTNERMTYHDVNKILVEKEEELRNRYELLVPMFEDMEELAAILRKKRFGRGAIDFDFKEAKVLVDEEGKPSDVVIRERGVAEKLIEEFMLAANETVAEHFHWLKLPFMYRIHEDPDSEKLGRFLEFITNFGYVVRGTANTVHPRALQKLLEEVRGEPEEQVISTVMLRSMQQAKYDPTSLGHFGLSTEFYTHFTSPIRRYPDLIVHRLIREYLIKGNVDEETQEKWRERLPEIARHCSEMERRAVDAERETDDVKKAQFMEDKIGETFTGIISGVTNFGIFVELENTIEGLVHVSYLTDDYYRYDEKHYAMIGERSGNVFRIGDEIEVRVINVNVEEASIDFEIVGMKPRKQRPDKSRPKVIEGGKRKKKENRGALALDGSKPKKKKKKKAFYENAPSAKRKKGKKRKREGHHHHHH” as the sequence, how does the “soluble on expression in E. coli” value read?
Answer: soluble

Question: With “MKASYLETLDRIKDEHAEMSKHVNQQRSDIEKVALEKENMNRSYMTYAEVSNTLRSDLRKAEEINKRLQEFIMQSLAPQLSQDNQANCLAALEAFKTASPRENGNGAPALPPGFPPGAAGMLGMMPNMPFGMSPAMSQLFNQFASPHVNGGDGAGGSSGGASEAKKAKLEDPDDGELEIDVTNDDHPSTASNGGAANKNGRDSTNSVASSGASTPSIASNSRARQQQQPLAGLQGLEQMNFLAGFNPNLLRQASAAGGFNFLNDPHAQARLAAAIGQIGSRPAYSFKIVDGGVPTPTSFPPDAQKGPGIPTGLKKKMELNHGEVVCAATISRDNSRVYTGGKGCVKIWDVKESDISGATVVNRPPIASLDCLKENYIRSCKLFEDGNTLLIGGEASTVALWDLTTETKTLDLETDSQACYALAMSPDEKLLFACLADGNILIYDIHNKVKVGTLPGHQDGASCLDLSKDGTKLWSGGLDNSVRCWDLAQRKEVAKHDFASQVFSLGCCPNDEWVAVGMENNYVEVLSTTGKEKYQLTQHESCVLSLKFAHSGKFFISTGKDNALNAWRTPYGASLFQLKENSSVLSCDISFDDSLIVTGSGEKKATLYAVEY” as the sequence, how does the “soluble on expression in E. coli” value read?
Answer: not soluble

Question: For “MSKLLVVKAHPLTKEESRSVRALETFLASYRETNPSDEIEILDVYAPETNMPEIDEELLSAWGALRAGAAFETLSENQQQKVARFNELTDQFLSADKVVIANPMWNLNVPTRLKAWVDTINVAGKTFQYTAEGPKPLTSGKKALHIQSNGGFYEGKDFASQYIKAILNFIGVDQVDGLFIEGIDHFPDRAEELLNTAMTKATEYGKTF”, which “soluble on expression in E. coli” value is on record?
Answer: soluble

Question: With “MGHHHHHHSHKCNAGFFHTLSGECVPCDCNGNSNECLDGSGYCVTTDGEDPGFSASALSFILSSQGAREARAPT” as the sequence, how does the “soluble on expression in E. coli” value read?
Answer: not soluble

Question: With “MVARRKGERVVRKNEVENVQQRACANRRERQRTKELNDAFTLLRKLIPSMPSDKMSKIHTLRIATDYISFLDEMQKNGCKLYGHSIFDEKRGYNLQSAFNMWRGNNGYTPIAGPSQLPPLQSAHIPPPAPSSIPPHCLMPQPWYQTCPPPKQEFHELCPISTPNPNSNPNQLTPIHWQ” as the sequence, how does the “soluble on expression in E. coli” value read?
Answer: not soluble
